Patent US5876971A, “Thrombin inhibitor from the saliva of protostomia” (Schering Aktiengesellschaft, priority 1992, dated 1999)

Tests used:
thrombin [1] = assay: Inhibition of the thrombin activity in the amidolytic test (substrate S2238); format: biochemical; details: inhibitor 6 nmol/l; thrombin 0.03 IU
Procedure: Inhibition of the thrombin activity in the amidolytic test
In a microtiterplate, 80 μl of 100 mmol/l of tris/HCl, pH 7.4; 150 mmol/l of NaCl and 0.03 IU ([…]) of thrombin and 100 μl of a diluted solution of the protein of the invention (32-630 ng) are incubated for 10 minutes at 37° C. and then mixed with 100 μl (50 nmol) of substrate S2238 (Kabi Vitrum). After an incubation of 30 minutes at 37° C., the absorption is measured at 405 nm. 630 ng (117 nmol/l) inhibits the activity of the thrombin to approximately 50%. […] (See FIG. 2)

thrombin [2] = assay: Inhibition of the thrombin activity in the clotting test (fibrinogen cleavage); format: biochemical
Procedure: Inhibition of the thrombin activity in the clotting test
In a microtiterplate, which is coated with bovine serum albumin (0.1% in 0.1 mol/l of NaHCO3, pH 9.5), 80 μl of 20 mmol/l of HEPES, pH 7.4; […] of NaCl; 20 μl of 20 mmol/l of CaCl2; 100 μl of a diluted solution of the protein of the invention (5-50 ng) and 20 μl of thrombin (0.03 IU=0.03 International Units) are pipetted. After an incubation of 2 minutes at 37° C., 100 μl of fibrinogen (5 mg/ml) is added and incubated for 40 minutes at 37° C. Then, the absorption is measured at 405 nm. […] (See FIG. 3)

thrombin [3] = target: thrombin
thrombin [4] = target: thrombin; remark: listed apart in the source
thrombin [5] = target: thrombin; remark: listed apart in the source
thrombin [6] = target: thrombin; remark: listed apart in the source

## hirudin
Thrombin [1]
  inhibition of thrombin activity in the amidolytic test: 85%
Thrombin [2]; inhibitor 8 nmol/l (45 ng), thrombin 0.03 IU (1.27 nmol/l), absorption at 405 nm
  inhibition of fibrinogen cleavage (clotting): complete inhibition

## thrombin inhibitor purified from the saliva of Triatoma pallidipennis (protein of the invention, purified according to Example 1)
Thrombin [3]
  lengthening of the thrombin time (plasma clotting after adding thrombin): 35 nmol/L
Thrombin [4]
  inhibition of the thrombin activity in the amidolytic test (substrate S2238, absorption at 405 nm); concentration giving approximately 50% inhibition: 117 nmol/L
Thrombin [5]
  inhibition of the thrombin activity in the clotting test (fibrinogen cleavage, absorption at 405 nm): 8 nmol/L
Thrombin [6]
  inhibition of thrombin-induced blood platelet aggregation (aggregometer): 15 ng/mL

B1: purified fraction: recombinant mature protein (Ti28=seq. id. no. 2) produced in E. coli, purified by ion exchange and thrombin affinity chromatography (protein)
chain: AEGDDCSLEKAMGDFKPEEFFNGTWYLAHGPDVTSPAVCQKFTTSGSKGFTQIVEIGYNKFESNVKFQCNQVDNKNDEQYSFKCKGSDNTEFEADFTFISVSYDNFALVCRSIIFTSQPKEDDYLVFERTKSDTDPDANEIC
Thrombin [2]; material from transformed E. coli, concentration not given
  inhibition of thrombin activity in the clotting test (qualitative): same inhibitory activity as the saliva protein
